In PMC5148612:

B1: Atg12~Atg5-Atg16-mCherry complex [modified: conjugated to Atg5 (Atg12~Atg5 protein conjugate) | conjugated to Atg12; conjugated to Atg5 (Atg12~Atg5 protein conjugate); conjugated to Atg12] [S. cerevisiae] / … (parent)
chain 1: MSRILESENETESDESSIISTNNGTAMERSRNNQELRSSPHTVQNRLELFSRRLSQLGLASDISVDQQVEDSSSGTYEQEETIKTNAQTSKQKSHKDEKNIQKIQIKFQPIGSIGQLKPSVCKISMSQSFAMVILFLKRRLKMDHVYCYINNSFAPSPQQNIGELWMQFKTNDELIVSYCASVAFG
chain 2: MNDIKQLLWNGELNVLVSIDPSFLMKGSPREIAVLRIRVPRETYLVNYMPLIWNKIKSFLSFDPLTDSEKYFWFEHNKTPIPWNYPVGVLFDCLAGKSATFTTSFENQVKDVLTFLRIHLVMGDSLPPTIIPIASSKTQAEKFWFHQWKQVCFILNGSSKAIMSLSVNEARKFWGSVITRNFQDFIEISNKISSSRPRHIPLIIQTSRTSGTFRISQPTISMTGVNPTLKDIEGDILDVKEGINGNDVMVICQGIEIPWHMLLYDLYSKLRSFDGFLYITLVPIKGGDKASSEL
chain 3: MGNFIITERKKAKEERSNPQTDSMDDLLIRRLTDRNDKEAHLNELFQDNSGAIGGNIVSHDDALLNTLAILQKELKSKEQEIRRLKEVIALKNKNTERLNDELISGTIENNVLQQKLSDLKKEHSQLVARWLKKTEKETEAMNSEIDGTK
chain 4: MEEQREILEQLKKTLQMLTVEPSKNNQIANEEKEKKENENSWCIL
chain 5: MNNSKTNQQMNTSMGYPLTVYDECNKFQLIVPTLDANIMLWCIGQLSLLNDSNGCKHLFWQPNDKSNVRILLNNYDYGHLFKYLQCQRKCSVYIGEGTLKKYNLTISTSFDNFLDLTPSEEKESLCREDAHEDPVSPKAGSEEEISPNSTSNVVVSRECLDNFMKQLLKLEESLNKLELEQKVTNKEPNHRISGTIDIPEDRSELVNFFTELKTVKQLEDVFQRYHDYERLSQECDSKTEIASDHSKKETKIEVEPPNERSLQITMNQRDNSLYFQLFNNTNSVLAGNCKLKFTDAGDKPTTQIIDMGPHEIGIKEYKEYRYFPYALDLEAGSTIEIENQYGEVIFLGKYGSSPMINLRPPSRLSAESLQASQEPFYSFQIDTLPELDDSSIISTSISLSYDGDDNEKALTWEEL

Variants of: B1
Assay: microscopy-based bead recruitment assay (mCherry signal at cargo mimetic beads)
Details: with GST-prApe1(1–45) + Atg19 [S. cerevisiae]; 25 mM HEPES pH 7.5, 150 NaCl and 1 mM DTT; parent: 100; read off a plot
For chain 2 K57E N84E, the percent of parent was 55%.
Work on chain 2 N84E yielded a percent of parent of 70%.
Work on chain 2 K57E yielded a percent of parent of 68%.
